Values belong to the molecule of their own block, whether it stands above or below them.
Target: human CD40 (human) (UniProt P25942)
Assay: Biacore (SPR)

Chain of UniProt P25942 (P25942 20-193 limits assumed): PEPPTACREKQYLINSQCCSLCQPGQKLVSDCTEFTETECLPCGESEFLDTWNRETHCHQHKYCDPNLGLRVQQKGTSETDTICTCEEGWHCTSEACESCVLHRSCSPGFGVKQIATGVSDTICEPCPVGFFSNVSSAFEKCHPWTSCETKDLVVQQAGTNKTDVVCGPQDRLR

Kd: 0.5 nM
Molecule: monoclonal antibody CHIR-12.12

Kd: 12 nM
B1: monoclonal antibody CHIR-5.9 (antibody, human IgG1, kappa, V domains shown)
VH: EVQLVQSGAEVKKPGESLKISCKGSGYSFTSYWIGWVRQMPGKGLEWMGIIYPGDSDTRYSPSFQGQVTISADKSISTAYLQWSSLKASDTAMYYCARGTAAGRDYYYYYGMDVWGQGTTVTVSS
VL: AIVMTQPPLSSPVTLGQPASISCRSSQSLVHSDGNTYLNWLQQRPGQPPRLLIYKFFRRLSGVPDRFSGSGAGTDFTLKISRVEAEDVGVYYCMQVTQFPHTFGQGTRLEIKR
